# Experiments:
# [1] = molecular target: the molecule itself; assay: cryo-EM structure; intraconoidal microtubule ICMT-1, native, from isolated T. gondii conoids; single-particle analysis, 3.3 Å
# [2] = molecular target: the molecule itself; assay: cryo-EM structure; conoid fibers (CF), native, from isolated T. gondii conoids after sonication and α-chymotrypsin; single-particle analysis, 2.9 Å (8-nm repeat) and 3.1 Å (24-nm repeat)
Protein,stoichiometry N [1],stoichiometry N [2]
"ICMT-associated protein 1 (ICMAP1) (natural protein, source: endogenous, isolated conoids of T. gondii tachyzoites (CHAPS lysis, sonication, α-chymotrypsin)) MMADLTLEPRGAGASRYLMTDLEDLDSSEGNSLVPYSRLGKSGNTDANLYSTPDMTTRYPGSRGLLRDDSRGSGGLDDPMGLPMRSLSPKDLGGRGGPRLSPAELKAQVRLRNMCGKPLRPDDVLVTRILTGEKSYWEALDEMRNLCASLTVENEKLKTGNAKATTKALEVEQKSRAEIRRLQTLQRVTRDELEMKLQDLTAENVRLRQSRDVERALQEQKVHMQKQIERLKQDSEEKGRLAAQRAREIHHLKEETQRSTDEAEALKGRVESLQAKLAEAISQKNLLLIRVKKDIRDIQDSAQQAREAVLAEKARSEQQAAEVEKHAQMQLQLHERKIRDLQQTVASEESQGEYYRRKYEEASKQLAKLKTQFDSTQNKTETDIALRERKLQELSESLNAAQKARDRSAQELNAMRSKYNILRGELEKAEQRRNHAEQEAIRAGAQVETMDVGRSTLEAKVSELQLERSGLMEKLQLAEKEVSELREAKNKIKASLDLAYQKEQFRLLEENSRIGTDLKVAQQQLDTVTRQKEQLQTDAERLRGAEEELREMQVDFLKMKTTLQLVQGRPCDNAKVVADGVVNALRAYAELKKATETQEQSMASLSQQNQALSQKANEAATLTREMLTLESENRSLNEHIASLTAELRKIGDQQTALQLEKEAQDEAFRQQIERVQKEAEARRRELDHQLEQAKERHRQETTKLTAELDRVKKLHDAEKKRTSELQVQVEDVKAEATQHTEGLEKRYQEQLRERNAQIEALSSEREEFAAETRAEIQQLKKTHADALKAARADRDKVLAERESHYQQQLEEMRTRQEQHAASQHHQRQELQQRLQQLELSFQETEANLRREVDAKAADVRSLQGQKEKLERELGAVKERLEDEQRSADRNLERVKRERQQDVERLQKELDDATRLAAEAERTAAEKIQSLETDVKNTRDQLKKANAGSEEKESLLEASKTRYADLENKHNDVVQKFNDLSEENKKLKKDLSAAADDKEAKEKQIKKLTDAQARDQQEIAAIKQKEREAIAAGDRLNAEIEKLKAEHRSAELKLKNDIDAVTTDKEAVEAKLAQVQKMHKEEAEALNSRIAQLTKEKADLEKAQRNLEEEKAALEQEKRKAASEAKVKQDLLEQKIAELQKQNQNLENGLRAAKAAGAAAAARPAPGAPGQAPPAAQAPQAGAPPAEEGGLFSWWGGGAAEAPPEAPASSAGAPAEAAPAPAAEAESSSWGWW",2,
"ICMAP2 (natural protein, source: endogenous, isolated conoids of T. gondii tachyzoites (CHAPS lysis, sonication, α-chymotrypsin)) MVTFKSGEVDEHHESFLRREPRSPSRSPSAVQSSWKPVCYIEEIDSLTTFPSSASCDSSSKTKSSRSLISTSLDQPRDSASSSSEPRQSGLLHVNAQDLSPSRPPESLYQTGYVRSPSSFDGTLSCVGEKTGVVRGKSGHPPLSFRSPRMQSVAHSEDRDRKGLTYSFDAYPPEVFSRWKGRSRTGESCGLVTSSRGRSPCSRSPPGRSFPRCVDPQTDRIEEASQNCLPQSSELHASEVLGPADPAACPTQKPTVEPDSSVAASVFCPGTQAESQQVPSLPTDAFSGGDPVRSQVGSKRSHLLEDIQGKTRCSAARAVIDFDASGIRSVVVSDLGGTPLRLSPYLDTLPRSNHPLVLSKAATSVPPYCSSSSENFSEARQGGESRLTGGAAPEGGKLKASAVLGGNPQPRSCPSGGTQAMGGKYQAEESPTRSVFRGKVTVPAAEVHTTQAAGCPSERKVGEFRCQTDTDTLRHFRKSLRSYSDSPKRPETNSLNQGRSGSSRIIGQLSDATFGCRDSMASVRGAFAPPTSTVSKSLRHDEAVLREQGIKVRQKDAIFLKGVEKRHLGMQAGRQDSKPRYGLESAASCNATGAGEDPSPGFRIAGRASSSICAGGSSGESMNSAFMRGLPGSASNVRLPQWMRDYGVEDPSLQTDGCSRNVVSTRHPGTCQYSSADARRPRMRVSAGAPANLTPYLWDENSDRDGDNSLEDISCGPPYRGEMTYSITHSGNSGNQLSSQLPPAPLSVPGDVGSFGFPVAHFVCSNCGATAVPPQCPTCGAVIVQFDGTTQIPVAYRTNGTDALGLASRAVLRNGDSRSVQFSGEADPQSRSYAPYDASPSRSRGPSASRRSHVHSSRQERRELSRGEAETERCTAGTARRSGMVAVTAKKSGPPSRQRLVASSGPSLPSTKKLASQVWGSPRVCAILCSFLGLPQLLTIRRCSKNLLVAAQFEMRYVLYGTLQQLLREEETSKKATSSRPKSCEPPSARNREGRGRTLTPGVASTASARDRSLPACPFNAQTLTRLLELSPAELTALKNGQLPDRRVADAKTPRPEELRARASRLRRLHAERVEEQRRRVSARTSGKRVDREATEPVLVGLDEEMQLRREMQLQHEEELLMRERRLQQQECELFKKQQEIWLQETQQRLRQNITRNGRPHFAVPEPAALSGAGASFPCAHPGGWQKRHVGFDDDLVKGPEIDYESEPPSFRRLRHSFLKLWNYNEAQFKAALYRHAFSSFPAYNYDTTAILCRCIYQLCADATSALPLNSILMLLTDRQSYLWRRMARLSGYVICSFTLNGCRREIGPSMPTTIQRVVPIPLDDGCWDGGRSRGSHRATPSRGRGGASRVGREFGDDSSEDPIPPFCWKEGIRGAVLESIELKLAKLSEEFIDEFVLYGRQQGLLLQLQGADSTVNGRLLATTLRRFCKQPEDRYVLMDLYEWLAAAMTFSQKCIKAKIEAAKRASPSPQCRIARPCTGRLQAFPPYERSEGRYGGRSTTPAFGSSVRGRSGCPGRVETPGATSAMTRGRSIARVSMGARRGVVEDSVHSIAYENALSSRTKSRERHADTPTRSRLVLRGNRAADFQRPVRGRSPDSSANHTGVFGRRSDGKLSTQSGVRSSSASRSRLTNQVSSGLTAREAAALCRLLQNQGKILEEVKQILNNMSAPGRRHTRVP",2,
"CF1 (natural protein, source: endogenous, isolated conoids of T. gondii tachyzoites (CHAPS lysis, sonication, α-chymotrypsin)) MQPLAREVSRLPRSGPLGPVAAKKDDKTFIPTNVRVSPGEKNDRVVKTEKIDDSTDGSGSHDGPRNLETQLEALTREVRELTLRVQEEKEMKELLNSQLNDAYEELADARSEHRVRGFAGASGARLRGVRGLPAFEARWMEPEHPTAQTAIRSQQEFELLLQEERARRHTMFEQYERHMKVMRKNHHKEKLETKKKVLSQVEFLIKKYRRLASDAVAVAKRERERVAEERKRARELAERACKNFEADLKGRTKTALEQYRRLVQEAHTAAKQEREELHNKCKELQETVDNERREFDTLIVREAEAKMAKFRASYARMKQQTEEERRQYGVMMHEIAKRVEKECAEYEEFVIRTMRDLLQSKGVEMTESGLRDFFQKKREEMRPSGEGHSSTDGLVTVKYRFQAADPEDLQ",,2
"SAS6L (natural protein, source: endogenous, isolated conoids of T. gondii tachyzoites (CHAPS lysis, sonication, α-chymotrypsin)) MATNFGFGGGASGCTDSVNFLAQVDTSAIDEMDPSLADGHTLVYSREVPFEIRLQETGSSLPGDVGRLEPIRVKILILGEETNPQHVRVELTSENDLFLNYTHALNEDLFRQMQERQKLMIEFGDYPSVLIKMLNSCIKEPHCFLAVLIMHTNGKARLDFIQSMEYKFIELLCLDCVQSTEEFTRRDMTFRYNALKSKLALLQARLHDIGCLLKLKSPSLLLHLQKAAQQQAHRRQQQVAAAAPIPGKLRAPGTTEGASTRFL",,2
